Measurements published in paper PMC6384864, “Identification of a Novel Specific Cucurbitadienol Synthase Allele in Siraitia grosvenorii Correlates with High Catalytic Efficiency” (Molecules, 2019).

Legend:
[1] = tested on: T1, CC(C)=CCC/C(C)=C/CC/C(C)=C/CC/C=C(\C)CC/C=C(\C)CC[C@@H]1OC1(C)C; assay: GC-MS of reaction product, yeast homogenate (Methods; Results text says purified variants); format: biochemical, Siraitia grosvenorii; details: 30 °C, pH 7.0, 100 mM sodium phosphate, 0.1% Triton X-100, allele 50R573L
T1 construct: full length, 759 residues; yeast codon-optimised in pCEV-G4-Km, S. cerevisiae BY4742, no tag told
Description: GC-MS of reaction product, yeast homogenate (Methods; Results text says purified variants) on SgCS (cucurbitadienol synthase, wild type 50R573L)

[2] = tested on: T1, CC(C)=CCC/C(C)=C/CC/C(C)=C/CC/C=C(\C)CC/C=C(\C)CC[C@@H]1OC1(C)C; assay: as above; format: biochemical, Siraitia grosvenorii; details: 30 °C, pH 7.0, 100 mM sodium phosphate, 0.1% Triton X-100, natural allele 50C573L

SgCS (cucurbitadienol synthase, wild type 50R573L) (Siraitia grosvenorii), sequence (chain, as listed by the source): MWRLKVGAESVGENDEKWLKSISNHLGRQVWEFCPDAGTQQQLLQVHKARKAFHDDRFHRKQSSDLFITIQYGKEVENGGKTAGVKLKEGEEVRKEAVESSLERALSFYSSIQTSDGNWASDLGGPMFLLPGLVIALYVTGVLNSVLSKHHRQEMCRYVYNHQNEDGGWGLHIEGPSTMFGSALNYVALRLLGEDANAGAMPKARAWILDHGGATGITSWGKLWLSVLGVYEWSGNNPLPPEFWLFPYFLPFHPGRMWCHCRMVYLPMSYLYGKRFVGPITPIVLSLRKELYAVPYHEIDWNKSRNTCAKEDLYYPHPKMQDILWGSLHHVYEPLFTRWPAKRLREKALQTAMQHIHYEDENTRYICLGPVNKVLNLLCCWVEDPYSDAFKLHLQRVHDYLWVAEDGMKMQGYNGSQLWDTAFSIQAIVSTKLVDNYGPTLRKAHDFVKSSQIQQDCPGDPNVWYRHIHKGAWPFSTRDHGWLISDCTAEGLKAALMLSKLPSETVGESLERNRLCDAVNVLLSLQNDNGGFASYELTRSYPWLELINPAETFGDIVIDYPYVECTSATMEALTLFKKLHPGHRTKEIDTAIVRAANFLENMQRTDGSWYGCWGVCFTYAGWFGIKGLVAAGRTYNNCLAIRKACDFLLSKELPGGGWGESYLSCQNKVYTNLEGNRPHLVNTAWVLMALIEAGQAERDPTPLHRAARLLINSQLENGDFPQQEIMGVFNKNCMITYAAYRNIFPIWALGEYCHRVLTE
SgCS (cucurbitadienol synthase, wild type 50R573L) (Siraitia grosvenorii; R50C), sequence (chain, as listed by the source R50C): as the sequence (chain, as listed by the source) above, with R50C counted along it

| Substance | Km [1] | kcat [1] | kcat/Km [1] | Km [2] | kcat [2] | kcat/Km [2] |
| --- | --- | --- | --- | --- | --- | --- |
| SgCS (cucurbitadienol synthase, wild type 50R573L) (Siraitia grosvenorii) | 0.29 µM | 0.0147 s⁻¹ | 49700 M⁻¹ s⁻¹ | – | – | – |
| SgCS (cucurbitadienol synthase, wild type 50R573L) (Siraitia grosvenorii; R50C) | – | – | – | 0.32 µM | 0.0128 s⁻¹ | 40200 M⁻¹ s⁻¹ |
